From US20240035012A1 come the findings set out here.

Experiment [1] addresses prefusion stabilized trimeric SARS-CoV-2 spike protein ectodomain (SARS-CoV-2) (UniProt P0DTC2).
The target is the same in experiment [2]. The source holds these as a separate data set.

For the substance ACE2-short-3HB (receptor), in experiment [1], the dissociation constant Kd came out at 3.9 nM. The substance further yielded a half-inhibitory concentration (IC50) in experiment [2] of 2.9 nM.
